Laboratory results as given in patent US9044392B2, “Nylon-3 co-polymers and synthetic lung surfactant compositions containing same” (Wisconsin Alumni Research Foundation, priority 2010, dated 2015).
Where two headings read alike, the source gives them in different places.

Assays:
[1] = Pulsating bubble surfactometry (PBS), static-bubble mode adsorption; type: physicochemical; conditions: 37° C., mimic 10 wt % in TL, originally synthesized polymers
Procedure: (§1) Surfactant Sample Preparation: The lipids DPPC, POPG, and PA were individually dissolved in a chloroform/methanol solution (3/1 [v/v]) to a known concentration (˜2 or 4 mg mL^−1). Single-lipid solutions were then combined by volume at the ratio of DPPC:POPG:PA, 68:22:9 [wt:wt:wt] and to a known total lipid concentration (˜2 mg mL^−1). This well-characterized and well-known lipid formulation is considered an adequate mimic of the non-protein (lipid) fraction of LS.^45 The peptides, peptoid, and copolymers were individually dissolved in methanol from a lyophilized powder to a known concentration (1-2 mg mL^−1). For the PBS studies, the peptides, peptoids, and polymers were ‘spiked’ into the lipid mixture at 10 wt % relative to the total lipid content (9.1 absolute wt %), and to a final concentration of ˜1 mg lipid mL^−1. For comparative purposes, the inclusion of peptide/peptoid/copolymer at 10 wt % corresponds to 10 wt % SP-B1-25 (9.1 absolute wt %) relative to the total lipid content. The total combined protein fraction in natural LS is estimated to be ˜10 wt %.^18 For PBS experiments, all σ reported is the standard deviation of the mean.
(§2) Pulsating Bubble Surfactometry: A commercial PBS instrument (General Transco, Largo, Fla.), modified with a direct, real-time imaging system, which has been previously described and validated in detail,^44 was utilized to obtain both static-mode and dynamic-mode data. Samples were dried from chloroform/methanol 3/1 [v/v] in Eppendorf tubes using a DNA 120 speedvac (Thermo Electron, Holbrook, N.Y.), forming a pellet. The pellet was suspended in buffer (150 mM NaCl, 10 mM HEPES, 5 mM CaCl2, pH 6.9) to 1.0 mg lipid mL^−1, with a final known volume of ˜70 μL. The samples were then mixed with a pipette 20 times, sonicated with a Fisher Model 60 probe sonicator for two 15 second spurts, and then mixed again 20 times to form a dispersed suspension. Samples were then loaded into a small plastic sample chamber (General Transco) using a modified leak-free methodology.^43,44 The sample chamber was then placed in the instrument, surrounded by a water bath held at 37° C. A bubble with a radius of 0.4 mm was then formed, and surface area was monitored throughout the experiment.
(§3) Static-mode adsorption data were collected for 20 minutes, where the suspension was allowed to adsorb to the bubble surface over time. […] Dynamic-mode data were then subsequently obtained for each sample at the adult respiratory cycle frequency of 20 cpm for 10 minutes, with a 50% reduction in surface area per pulsation cycle. PBS experiments were repeated three to six times for each sample to ensure repeatability. Representative PBS loops are presented at five minutes of cycling, and indicate clockwise bubble expansion and counterclockwise compression (see FIGS. 6A, 6B, 6C, and 6D). Average γ±σ at selected time intervals are listed in the Examples for both data collection modes. Percent compression is defined here as 100*[(SAmax−SA20)/(SAmax)], where SAmax was the maximum SA value at expansion, and SA20 was the SA at which γ first reaches 20 mN m^−1 upon compression (FIG. 5).
Pulsating Bubble Surfactometry: Static-Bubble Mode. The immediate adsorptive, γ-reducing effect, and stability of the films over time at a bubble […] interface were assessed via PBS in static-bubble mode. […]

[2] = Pulsating bubble surfactometry (PBS), dynamic-bubble mode, 20 cpm; type: physicochemical
Procedure: as §1, §2, §3
Pulsating Bubble Surfactometry: Dynamic-Bubble Mode. The dynamic surfactant activity during changes in volume or film surface area provides an indication of film sustainability over time. Bubble pulsation at the approximate adult respiratory rate of 20 cycles per minute (cpm) in PBS dynamic-bubble mode at 37° C. permits a simplified evaluation of such dynamic film behavior.^44 In dynamic mode, after static-bubble adsorption, the bubble was subsequently pulsed for 10 minutes and y was recorded with respect to surface area. FIGS. 4A, 4B, 4C, and 4D depict the attained maximum and minimum γ (γmax/min) at 5 minutes of cycling for all lipid films containing polymers or positive controls. Mean γmax/min's±σ at selected time intervals for up to 10 minutes of cycling are located in Tables 4 and 5. […]

[3] = at 5 minutes, static-bubble mode, TL film; cited from earlier work
[4] = dynamic-bubble mode, cited from earlier work
[5] = 5 minutes of dynamic-bubble cycling, 20 cpm, 37° C. (FIGS. 4A-4D)
[6] = dynamic-bubble pulsation, 1 min, 37° C., mimic 10 wt % in TL, originally synthesized polymers
[7] = dynamic-bubble pulsation, 2.5 min, 37° C., mimic 10 wt % in TL, originally synthesized polymers
[8] = dynamic-bubble pulsation, 10 min, 37° C., mimic 10 wt % in TL, originally synthesized polymers

| Molecule | γ 1 min Avg (mean surface tension) ([1]; 1 min) | γ 2.5 min Avg (mean surface tension) ([1]; 2.5 min) | γ 5 min Avg (mean surface tension) ([1]; 5 min) | γ 10 min Avg (mean surface tension) ([1]; 10 min) | γeq 20 min Avg (mean surface tension) ([1]; 20 min) | γmax [2, 5] | γmin [2, 5] | Avg % Comp: percent bubble surface area compression required to reach 20 mN m-1 upon compression ([2]; at 5 minutes of dynamic-bubble pulsation on the PBS, 37° C.) | γ max Avg, 1 min [2, 6] | γ min Avg, 1 min [2, 6] | γ max Avg, 2.5 min [2, 7] | γ min Avg, 2.5 min [2, 7] | γ max Avg, 10 min [2, 8] | γ min Avg, 10 min [2, 8] | adsorbed γ [3] | γmax ([4]; PBS cycling loop) | γmin ([4]; PBS cycling loop) | percent compression to reach 20 mN m^−1 [4] |
| --- | --- | --- | --- | --- | --- | --- | --- | --- | --- | --- | --- | --- | --- | --- | --- | --- | --- | --- |
| SP-B1-25: modified peptide SP-B1-25 (Cys8,11→Ala), surface-active peptide fragment of SP-B, positive control (FPIPLPYAWLARALIKRIQAMIPKG; Pulmonary surfactant-associated protein B in Tanaka lipid film; UniProt P07988 201-225, looked up, variant C8A C11A) | 40.5 mN m−1 | 39.4 mN m−1 | 37.9 mN m−1 | 36.8 mN m−1 | 35.6 mN m−1 | ~50 mN m^−1 | near zero | 33.2% | 49.6 mN m−1 | <1 mN m−1 | 49.9 mN m−1 | <1 mN m−1 | 49.8 mN m−1 | <1 mN m−1 |  |  |  |  |
| SP-B: porcine-derived lung surfactant protein B in the Tanaka lipid film (protein, UniProt P15782 1-79, looked up, Pulmonary surfactant-associated protein B in Tanaka lipid film) Pulmonary …: FPIPLPFCWLCRTLIKRIQAVVPKGVLLKAVAQVCHVVPLPVGGICQCLAERYIVICLNMLLDRTLPQLVCGLVLRCSS |  |  |  |  |  |  |  |  |  |  |  |  |  |  | ~26 mN m^−1 | ~36 mN m^−1 | near-zero | ~21% |
